Data as given in PMC7563236.

Molecular target: His6-Ku70-tRFP (human) (UniProt P12956)
Experiment: SDS-PAGE without heat denaturation, fluorescence in the gel; samples not denatured at 94 °C; bands of His6-Ku70-tRFP seen by tRFP fluorescence

stoichiometry N: 2
Substance: His6-Ku70-tRFP (from UniProt P12956 1-609) (natural protein)
